Assay [1] deals with T1, human nerve growth factor (hNGF) (human, UniProt P01138 122-241). Nature of the assay: cell-based or functional assay.
Assay [2] addresses T2, human brain-derived neurotrophic factor (hBDNF) (human, UniProt P23560 129-247).
T2 construct: Bought protein (Absin)
T2 sequence (looked up): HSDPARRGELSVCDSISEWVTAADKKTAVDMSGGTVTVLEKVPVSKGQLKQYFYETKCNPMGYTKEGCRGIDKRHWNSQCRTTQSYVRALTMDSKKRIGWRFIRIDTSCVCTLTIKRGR
Nature of the assay: ELISA, neurotrophin coated on plate, goat anti-human IgG-HRP detection. How it is done: (§1) The present invention determines the cross-reactivity of antibody TRN1027 to other neurotrophins by ELISA. HBDNF, hNT-3 and hNT-4 (Absin) were used as antigens to coat the 96-well plate at […] overnight at 4° C., respectively. Then the plate was blocked with the blocking solution for 2 hours at ambient temperature. The plate was added with antibody TRN1027 with decreasing concentrations (ranging from 10 ug/ml-0 ug/ml) at 100 ul/well and incubated at 37° C. for 1 h. Antibody TRN1027 was detected by TMB with goat-anti-human IgG-HRP (1: 10000) and the substrate developer. OD values were measured at dual wavelengths of 450-630 nm.
For orientation: An ELISA detects its analyte on a solid surface through an enzyme-linked reagent.

The target in assay [3] is T3, human neurotrophin-3 (hNT-3) (human, UniProt P20783 139-257).
T3 construct: Bought protein (Absin)
T3 sequence (looked up): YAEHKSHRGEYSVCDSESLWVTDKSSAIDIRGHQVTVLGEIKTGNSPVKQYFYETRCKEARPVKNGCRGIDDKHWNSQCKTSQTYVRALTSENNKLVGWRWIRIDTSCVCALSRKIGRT
Described as above. How it is done: as §1

Assay [4] addresses T4, human neurotrophin-4 (hNT-4) (human, UniProt P34130 81-210).
T4 construct: Bought protein (Absin)
T4 sequence (looked up): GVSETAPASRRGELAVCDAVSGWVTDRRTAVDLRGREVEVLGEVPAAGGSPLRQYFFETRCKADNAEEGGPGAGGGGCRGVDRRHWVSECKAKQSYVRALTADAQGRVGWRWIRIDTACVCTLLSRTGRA
The description is as above. The protocol:
as §1

For assay [5], the target named is T1, human nerve growth factor (hNGF). As to the kind of experiment: ELISA, hNGF coated at 2 ug/mL, antibody titrated from 10 ug/mL, goat anti-human IgG-HRP. How it is done: Antibody TRN1027 was tested for binding activity to hNGF by the ELISA assay. Specifically, 2 μg/mL of hNGF as an antigen was diluted and coated with carbonate buffer at pH 9.6 in a 96-well plate overnight at 4° C.; the plate was blocked by the blocking solution at 37° C. for 2 h. The antibody TRN1027 was serial diluted with the blocking solution, starting at 10 μg/mL, 3-fold dilution for 12 gradients; each gradient of antibody TRN1027 was then added to a 96-well plate and incubated for 1 h at 37° C. The plate was washed with the PBST buffer, added with 100 μ/well LHRP labeled goat anti-human IgG (1: 10000), and incubate at 37° C. for 1 h. The plate was washed with the PBST buffer, added with 100 μL/well TMB developing solution away from light, and placed for 5 min at 37° C. H₂SO₄ was added to stop the reaction. The detection was conducted at 450 nm wavelength. The results were calculated and analyzed.

Assay [6] shares this target. Nature of the assay: SPR (BIACORE3000), antibody captured by anti-human IgG (Fc) on CM5 chip, hNGF as analyte. The source says: The binding force between an antibody and an antigenic determinant, called antibody affinity, reflects the ability of the antibody molecule to bind to the antigenic determinant. In this example, the antigen binding affinity of antibody TRN1027 was detected using surface plasmon resonance analysis (BIACORE3000). Anti-human IgG (Fc) antibody was immobilized on the surface of CM5 sensor chip (GE) by amino-coupling method. The anti-NGF antibody was captured as a ligand, the capture level reached about 400 RU. Different concentrations of hNGF protein were passed through the detection channel as the analyte streams. The binding of antigen to antibody and dissociation of the bound complex was monitored in real-time. Kinetic analysis (calculation of dissociation constants (KD)) was performed with the Biacore X100 Evaluation Software (2.0.1).

T1 sequence (P01138 122-241 limits assumed): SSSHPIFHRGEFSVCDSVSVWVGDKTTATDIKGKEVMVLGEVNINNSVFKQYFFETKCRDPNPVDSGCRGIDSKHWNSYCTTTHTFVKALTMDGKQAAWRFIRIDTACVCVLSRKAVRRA

B1: human anti-NGF antibody TRN1027 (antibody, V domains shown)
VH: QLQLQESGSGLVRPSQTLSLTCAVSGDSMNSGGYSWSWIRQPPGKGLEWIGYIYYSGSTHYNPSLESRVTLSLHRSKNQFFLQLSSVTAADTAVYYCARTLWFGEFEGFDPWGQGILVTVSS
VL: QSALTQPPSASGSPGQSVTISCTGTSSDVGGYNFVSWYQHHPGKAPKLLLYEVSKRPSGVPDRFSGSKSGNTASLTVSGLQAEDEADYFCSSFAGSNNFVFFGGGTKLTVL
A word on the EC50: it is the concentration that produces a half-maximal response. Read a low EC50 as an effect from little substance. In general, Kd refers to a measure of binding affinity in units of concentration. The low end stands for higher affinity, the high end for lower affinity. For the molecule B1, in assay [1], the “EC50 of inhibition of NGF-induced proliferation of TF-1 cells (MTS)” value turned out to be 3.01 ng/mL. Also, the “EC50 of neutralisation of NGF on PC-12 cells (Celltiter-Glo cell viability)” value in assay [1] came out at 8.83 ng/mL. The binding result in assay [2], in assay [3] and in assay [4] was “no binding (tested: 10 ug/ml-0 ug/ml)” each time. Moreover, in assay [5], the 50% effective concentration (EC50) came out at 1.07 ng/mL. This molecule also returned a Kd in assay [6] of 0.0168 nM.

B2: anti-NGF antibody Tanezumab (CAS No. 880266-57-9, published in CN 102746399 B, also known as E3) (antibody, V domains shown)
VH: QVQLQESGPGLVKPSETLSLTCTVSGFSLIGYDLNWIRQPPGKGLEWIGIIWGDGTTDYNSAVKSRVTISKDTSKNQFSLKLSSVTAADTAVYYCARGGYWYATSYYFDYWGQGTLVTVSS
VL: DIQMTQSPSSLSASVGDRVTITCRASQSISNNLNWYQQKPGKAPKLLIYYTSRFHSGVPSRFSGSGSGTDFTFTISSLQPEDIATYYCQQEHTLPYTFGQGTKLEIKR
For B2, in assay [1], the “EC50 of inhibition of NGF-induced proliferation of TF-1 cells (MTS)” value came to 14.3 ng/mL and the “EC50 of neutralisation of NGF on PC-12 cells (Celltiter-Glo cell viability)” value worked out at 32.2 ng/mL. The molecule also showed a 50% effective concentration (EC50) in assay [5] of 2.96 ng/mL.
